Assay results published in patent US20240293512A1 (HANMI PHARM, published 2024).
Bridge positions count the residues as written; N and C are the ends. Square brackets hold non-standard residues; d marks the D form. Ends that are not written are not given here. * marks the point of attachment. Acetyl(2-(4-imidazolyl)) = O=C(Cc1c[nH]cn1)*; Aib = CC(C)(N)C(=O)O

Tests used:
Experiment in all cases: cell-based or functional assay
human GLP-1 receptor = human GLP-1 receptor (human, UniProt P43220 24-463)
human GCG receptor = human GCG receptor (human, UniProt P47871 26-477)
Chain of human GCG receptor (P47871 26-477): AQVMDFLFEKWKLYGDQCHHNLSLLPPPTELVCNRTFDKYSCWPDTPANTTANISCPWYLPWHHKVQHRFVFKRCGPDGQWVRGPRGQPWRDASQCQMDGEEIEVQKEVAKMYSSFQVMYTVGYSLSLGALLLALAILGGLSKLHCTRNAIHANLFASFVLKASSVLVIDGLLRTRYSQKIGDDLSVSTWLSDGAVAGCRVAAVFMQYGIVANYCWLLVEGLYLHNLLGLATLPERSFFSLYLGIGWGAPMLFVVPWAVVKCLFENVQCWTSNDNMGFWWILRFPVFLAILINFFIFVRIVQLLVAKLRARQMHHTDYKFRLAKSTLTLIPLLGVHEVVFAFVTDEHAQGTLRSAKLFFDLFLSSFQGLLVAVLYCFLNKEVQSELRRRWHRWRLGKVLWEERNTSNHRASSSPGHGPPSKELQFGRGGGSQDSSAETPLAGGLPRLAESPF

human GIP receptor = target: T1, human GIP receptor (human, UniProt P48546 22-466)
T1 sequence (looked up): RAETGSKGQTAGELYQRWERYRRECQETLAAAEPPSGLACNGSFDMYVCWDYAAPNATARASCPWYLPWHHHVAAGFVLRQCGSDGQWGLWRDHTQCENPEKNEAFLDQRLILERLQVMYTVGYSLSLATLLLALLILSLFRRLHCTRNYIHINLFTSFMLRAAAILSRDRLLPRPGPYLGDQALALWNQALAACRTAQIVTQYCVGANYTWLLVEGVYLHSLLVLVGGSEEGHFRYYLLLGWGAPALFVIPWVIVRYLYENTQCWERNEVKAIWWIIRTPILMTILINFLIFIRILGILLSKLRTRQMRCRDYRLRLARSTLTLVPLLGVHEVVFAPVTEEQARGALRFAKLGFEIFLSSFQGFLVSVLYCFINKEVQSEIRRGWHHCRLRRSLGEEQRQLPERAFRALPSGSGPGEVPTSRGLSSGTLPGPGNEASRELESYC

[Acetyl(2-(4-imidazolyl))][Aib]QGTFTSDYSKYLDEKRQKEFVQWLLNTKC (bridge 16-20) [triple agonist of SEQ ID NO: 88]
In vitro activity compared with native peptide (%) vs GLP-1 (cAMP EC50) (human GLP-1 receptor): 9.6% | In vitro activity compared with native peptide (%) vs Glucagon (cAMP EC50) (human GCG receptor): 0.3% | In vitro activity compared with native peptide (%) vs GIP (cAMP EC50) (human GIP receptor): < 0.1%

[Acetyl(2-(4-imidazolyl))][Aib]QGTFTSDYSKYLDEKRQKEFVNWLLAQKC (bridge 16-20) [triple agonist of SEQ ID NO: 93]
In vitro activity compared with native peptide (%) vs GLP-1 (cAMP EC50) (human GLP-1 receptor): 5.7% | In vitro activity compared with native peptide (%) vs Glucagon (cAMP EC50) (human GCG receptor): 0.3% | In vitro activity compared with native peptide (%) vs GIP (cAMP EC50) (human GIP receptor): 0.7%

[Acetyl(2-(4-imidazolyl))][Aib]QGTFTSDYSKYLDEKRQKEFVQWLLDTKC (bridge 16-20) [triple agonist of SEQ ID NO: 89]
In vitro activity compared with native peptide (%) vs GLP-1 (cAMP EC50) (human GLP-1 receptor): 7.1% | In vitro activity compared with native peptide (%) vs Glucagon (cAMP EC50) (human GCG receptor): 0.7% | In vitro activity compared with native peptide (%) vs GIP (cAMP EC50) (human GIP receptor): < 0.1%

H[Aib]QGTFTSDVSSYLDGQAQKEFIAWLVKGC [triple agonist of SEQ ID NO: 2]
In vitro activity compared with native peptide (%) vs GLP-1 (cAMP EC50) (human GLP-1 receptor): 5.9% | In vitro activity compared with native peptide (%) vs Glucagon (cAMP EC50) (human GCG receptor): < 0.1% | In vitro activity compared with native peptide (%) vs GIP (cAMP EC50) (human GIP receptor): < 0.1%

[Acetyl(2-(4-imidazolyl))]GEGTFTSDLSKYLDSRRQQLFVQWLKAGGPSSGAPPPSHG [triple agonist of SEQ ID NO: 11]
In vitro activity compared with native peptide (%) vs GLP-1 (cAMP EC50) (human GLP-1 receptor): 1.4% | In vitro activity compared with native peptide (%) vs Glucagon (cAMP EC50) (human GCG receptor): < 0.1% | In vitro activity compared with native peptide (%) vs GIP (cAMP EC50) (human GIP receptor): < 0.1%

[Acetyl(2-(4-imidazolyl))][Aib]QGTFTSDYSIAMDEIHQKDFVNWLLNTC (bridge 16-20) [triple agonist of SEQ ID NO: 87]
In vitro activity compared with native peptide (%) vs GLP-1 (cAMP EC50) (human GLP-1 receptor): 0.9% | In vitro activity compared with native peptide (%) vs Glucagon (cAMP EC50) (human GCG receptor): < 0.1% | In vitro activity compared with native peptide (%) vs GIP (cAMP EC50) (human GIP receptor): < 0.1%

[Acetyl(2-(4-imidazolyl))][Aib]QGTFTSDYSIAMDEIHQKDFVNWLLNTKC (bridge 16-20) [triple agonist of SEQ ID NO: 94]
In vitro activity compared with native peptide (%) vs GLP-1 (cAMP EC50) (human GLP-1 receptor): 0.5% | In vitro activity compared with native peptide (%) vs Glucagon (cAMP EC50) (human GCG receptor): < 0.1% | In vitro activity compared with native peptide (%) vs GIP (cAMP EC50) (human GIP receptor): < 0.1%

[Acetyl(2-(4-imidazolyl))]GQGTFTSDYSIQLDEIAVRDFVEWLKNGGPSSGAPPPSHG [triple agonist of SEQ ID NO: 14]
In vitro activity compared with native peptide (%) vs GLP-1 (cAMP EC50) (human GLP-1 receptor): 28% | In vitro activity compared with native peptide (%) vs Glucagon (cAMP EC50) (human GCG receptor): < 0.1% | In vitro activity compared with native peptide (%) vs GIP (cAMP EC50) (human GIP receptor): < 0.1%

Y[Aib]QGTFTSDYSKALDEKAAKDFVNWLLDHHPSSGQPPPSC (bridge 16-20) [triple agonist of SEQ ID NO: 99]
In vitro activity compared with native peptide (%) vs GLP-1 (cAMP EC50) (human GLP-1 receptor): 20.9% | In vitro activity compared with native peptide (%) vs Glucagon (cAMP EC50) (human GCG receptor): 14.9% | In vitro activity compared with native peptide (%) vs GIP (cAMP EC50) (human GIP receptor): 57.7%

Y[Aib]QGTFTSDYSKALDEKAAKEFVNWLLDQHPSSGQPPPSC (bridge 16-20) [triple agonist of SEQ ID NO: 101]
In vitro activity compared with native peptide (%) vs GLP-1 (cAMP EC50) (human GLP-1 receptor): 23.2% | In vitro activity compared with native peptide (%) vs Glucagon (cAMP EC50) (human GCG receptor): 13.9% | In vitro activity compared with native peptide (%) vs GIP (cAMP EC50) (human GIP receptor): 40.1%

[Acetyl(2-(4-imidazolyl))][Aib]QGTFTSDYSIAMDEIHQKDFVNWLLAQC (bridge 16-20) [triple agonist of SEQ ID NO: 85]
In vitro activity compared with native peptide (%) vs GLP-1 (cAMP EC50) (human GLP-1 receptor): 4.3% | In vitro activity compared with native peptide (%) vs Glucagon (cAMP EC50) (human GCG receptor): < 0.1% | In vitro activity compared with native peptide (%) vs GIP (cAMP EC50) (human GIP receptor): 0.3%

Y[Aib]QGTFTSDYSKYLDEKRAKEFVQWLLDHCPSSGQPPPS (bridge 16-20) [triple agonist of SEQ ID NO: 96]
In vitro activity compared with native peptide (%) vs GLP-1 (cAMP EC50) (human GLP-1 receptor): 34.4% | In vitro activity compared with native peptide (%) vs Glucagon (cAMP EC50) (human GCG receptor): 195% | In vitro activity compared with native peptide (%) vs GIP (cAMP EC50) (human GIP receptor): 5.2%

[Acetyl(2-(4-imidazolyl))][Aib]EGTFTSDYSIAMDEIHQKDFVDWLLAEKC (bridge 16-20) [triple agonist of SEQ ID NO: 91]
In vitro activity compared with native peptide (%) vs GLP-1 (cAMP EC50) (human GLP-1 receptor): 31.9% | In vitro activity compared with native peptide (%) vs Glucagon (cAMP EC50) (human GCG receptor): 16.8% | In vitro activity compared with native peptide (%) vs GIP (cAMP EC50) (human GIP receptor): 0.3%

Y[Aib]QGTFTSDYSKYLDEKRAKEFVQWLLDCHPSSGQPPPS (bridge 16-20) [triple agonist of SEQ ID NO: 97]
In vitro activity compared with native peptide (%) vs GLP-1 (cAMP EC50) (human GLP-1 receptor): 10.5% | In vitro activity compared with native peptide (%) vs Glucagon (cAMP EC50) (human GCG receptor): 62.8% | In vitro activity compared with native peptide (%) vs GIP (cAMP EC50) (human GIP receptor): 2.6%

[Acetyl(2-(4-imidazolyl))]GEGTFISDYSIQLDEIAVQDFVEWLLAQKPSSGAPPPSHG [triple agonist of SEQ ID NO: 13]
In vitro activity compared with native peptide (%) vs GLP-1 (cAMP EC50) (human GLP-1 receptor): < 0.1% | In vitro activity compared with native peptide (%) vs Glucagon (cAMP EC50) (human GCG receptor): < 0.1% | In vitro activity compared with native peptide (%) vs GIP (cAMP EC50) (human GIP receptor): < 0.1%

[Acetyl(2-(4-imidazolyl))][Aib]QGTFTSDYSKYLDEKRQKEFVNWLLAQC (bridge 16-20) [triple agonist of SEQ ID NO: 86]
In vitro activity compared with native peptide (%) vs GLP-1 (cAMP EC50) (human GLP-1 receptor): 28.4% | In vitro activity compared with native peptide (%) vs Glucagon (cAMP EC50) (human GCG receptor): 0.4% | In vitro activity compared with native peptide (%) vs GIP (cAMP EC50) (human GIP receptor): 0.2%

[Acetyl(2-(4-imidazolyl))]GQGTFTSDLSKQMDSEAQQLFIEWLKNGGPSSGAPPPSHG [triple agonist of SEQ ID NO: 16]
In vitro activity compared with native peptide (%) vs GLP-1 (cAMP EC50) (human GLP-1 receptor): 2.1% | In vitro activity compared with native peptide (%) vs Glucagon (cAMP EC50) (human GCG receptor): < 0.1% | In vitro activity compared with native peptide (%) vs GIP (cAMP EC50) (human GIP receptor): < 0.1%

[Acetyl(2-(4-imidazolyl))][Aib]QGTFTSDYSIAMDEIHQKDFVNWLLAQKC (bridge 16-20) [triple agonist of SEQ ID NO: 92]
In vitro activity compared with native peptide (%) vs GLP-1 (cAMP EC50) (human GLP-1 receptor): 0.8% | In vitro activity compared with native peptide (%) vs Glucagon (cAMP EC50) (human GCG receptor): < 0.1% | In vitro activity compared with native peptide (%) vs GIP (cAMP EC50) (human GIP receptor): 0.4%

Y[Aib]QGTFTSDYSKALDEKAAKEFVNWLLDHHPSSGQPPPSC (bridge 16-20) [triple agonist of SEQ ID NO: 98]
In vitro activity compared with native peptide (%) vs GLP-1 (cAMP EC50) (human GLP-1 receptor): 28.1% | In vitro activity compared with native peptide (%) vs Glucagon (cAMP EC50) (human GCG receptor): 8.2% | In vitro activity compared with native peptide (%) vs GIP (cAMP EC50) (human GIP receptor): 47.1%

[Acetyl(2-(4-imidazolyl))][Aib]EGTFTSDYSIAMDEIHQKDFVNWLLAQKC (bridge 16-20) [triple agonist of SEQ ID NO: 90]
In vitro activity compared with native peptide (%) vs GLP-1 (cAMP EC50) (human GLP-1 receptor): 7.4% | In vitro activity compared with native peptide (%) vs Glucagon (cAMP EC50) (human GCG receptor): < 0.1% | In vitro activity compared with native peptide (%) vs GIP (cAMP EC50) (human GIP receptor): < 0.1%

Y[Aib]QGTFTSDYSKALDEKAAKEFVQWLLDQHPSSGQPPPSC (bridge 16-20) [triple agonist of SEQ ID NO: 100]
In vitro activity compared with native peptide (%) vs GLP-1 (cAMP EC50) (human GLP-1 receptor): 42.2% | In vitro activity compared with native peptide (%) vs Glucagon (cAMP EC50) (human GCG receptor): 12.7% | In vitro activity compared with native peptide (%) vs GIP (cAMP EC50) (human GIP receptor): 118%

H[Aib]QGTFTSDVSKYLDGQAAQEFVAWLLAGGGPSSGAPPPSC [triple agonist of SEQ ID NO: 10]
In vitro activity compared with native peptide (%) vs GLP-1 (cAMP EC50) (human GLP-1 receptor): 46% | In vitro activity compared with native peptide (%) vs Glucagon (cAMP EC50) (human GCG receptor): < 0.1% | In vitro activity compared with native peptide (%) vs GIP (cAMP EC50) (human GIP receptor): < 0.1%

[Acetyl(2-(4-imidazolyl))][Aib]EGTFTSDYSIAMDEIHQKDFVDWLLAEC (bridge 16-20) [triple agonist of SEQ ID NO: 84]
In vitro activity compared with native peptide (%) vs GLP-1 (cAMP EC50) (human GLP-1 receptor): 4.2% | In vitro activity compared with native peptide (%) vs Glucagon (cAMP EC50) (human GCG receptor): < 0.1% | In vitro activity compared with native peptide (%) vs GIP (cAMP EC50) (human GIP receptor): < 0.1%

[Acetyl(2-(4-imidazolyl))]GEGTFISDLSKYMDEQAVQLFVEWLMAGGPSSGAPPPSHG [triple agonist of SEQ ID NO: 12]
In vitro activity compared with native peptide (%) vs GLP-1 (cAMP EC50) (human GLP-1 receptor): 0.4% | In vitro activity compared with native peptide (%) vs Glucagon (cAMP EC50) (human GCG receptor): < 0.1% | In vitro activity compared with native peptide (%) vs GIP (cAMP EC50) (human GIP receptor): < 0.1%

Y[Aib]QGTFTSDYSKYLDEKRAKEFVQWLLCHHPSSGQPPPS (bridge 16-20) [triple agonist of SEQ ID NO: 95]
In vitro activity compared with native peptide (%) vs GLP-1 (cAMP EC50) (human GLP-1 receptor): 2.1% | In vitro activity compared with native peptide (%) vs Glucagon (cAMP EC50) (human GCG receptor): 0.4% | In vitro activity compared with native peptide (%) vs GIP (cAMP EC50) (human GIP receptor): < 0.1%

Y[Aib]QGTFTSDYSKALDEKAAKDFVNWLLDQHPSSGQPPPSC (bridge 16-20) [triple agonist of SEQ ID NO: 102]
In vitro activity compared with native peptide (%) vs GLP-1 (cAMP EC50) (human GLP-1 receptor): 23.3% | In vitro activity compared with native peptide (%) vs Glucagon (cAMP EC50) (human GCG receptor): 29.5% | In vitro activity compared with native peptide (%) vs GIP (cAMP EC50) (human GIP receptor): 58%

H[Aib]QGTFTSDVSKYLDGQAAQEFVAWLLAGC [triple agonist of SEQ ID NO: 9]
In vitro activity compared with native peptide (%) vs GLP-1 (cAMP EC50) (human GLP-1 receptor): 32.1% | In vitro activity compared with native peptide (%) vs Glucagon (cAMP EC50) (human GCG receptor): 0.13% | In vitro activity compared with native peptide (%) vs GIP (cAMP EC50) (human GIP receptor): < 0.1%
